Measured values as given in paper PMC2225174 (Acta Crystallographica Section F, 2006).

Molecular target: T1, SsoPCNA1 (Sulfolobus solfataricus, UniProt P57766 1-249)
T1 sequence (looked up): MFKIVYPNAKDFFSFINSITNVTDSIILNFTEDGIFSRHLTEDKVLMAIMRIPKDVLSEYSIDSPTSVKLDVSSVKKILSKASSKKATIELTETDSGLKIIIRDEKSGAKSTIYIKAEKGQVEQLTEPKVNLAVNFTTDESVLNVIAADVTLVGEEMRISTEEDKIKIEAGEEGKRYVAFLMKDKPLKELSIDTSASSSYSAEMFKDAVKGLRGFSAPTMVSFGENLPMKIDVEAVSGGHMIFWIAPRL
Assay: crystal structure

binding result: binds
B1: SsoPCNA2 (natural protein, Sulfolobus solfataricus, UniProt Q97Z84 1-245, looked up)
chain: MKAKVIDAVSFSYILRTVGDFLSEANFIVTKEGIRVSGIDPSRVVFLDIFLPSSYFEGFEVSQEKEIIGFKLEDVNDILKRVLKDDTLILSSNESKLTLTFDGEFTRSFELPLIQVESTQPPSVNLEFPFKAQLLTITFADIIDELSDLGEVLNIHSKENKLYFEVIGDLSTAKVELSTDNGTLLEASGADVSSSYGMEYVANTTKMRRASDSMELYFGSQIPLKLRFKLPQEGYGDFYIAPRAD
